Results published in the DeepSol protein solubility set.

test: soluble on expression in E. coli; label from the status in PepcDB or PDB records

| Sequence | soluble on expression in E. coli |
| --- | --- |
| MSTPDDPVIHSPPSIGAAPGMNGYHGSGVKLEESSGACGSPDDGLLDSSEESRRRQKTCRVCGDHATGYNFNVITCESCKAFFRRNALRPKEFKCPYSEDCEINSVSRRFCQKCRLRKCFTVGMKKEWILNEEQLRRRKNSRLNNTGTCNKRSQPGNQQSPQGPNQQPHLSPHHPGVAIYPPQPQRPLTINPMDNQMMHHMQANRPNAMPQLISPPGAQPYPLTSPVGSSASDSPPNRSLTMMHNGEKSPDGYDPNIMAHRAPPPSFNNRPKMDSGQVVLSTEEYKQLLSRIPGAQVPGLMNEEEPINKRAAYNCNGHPMPAETTPPYSAPMSDMSLSRHNSTSSGTEKNHMTHSTVSAIPGNSAQNHFDIASFGMGIVTATGGGDAAEEMYKRMNMFYENCIQSALDSPENQEPKPQEAMIPKEEYMTPTHGFQYQSDPYQVPPAERNINYQLNAAELKALDAVREAFYGMDDPMEQGRQMQSFLKANKTPADIMNIMDVTMRRFVKVAKGVPAFREVSQEGKFSLLKGGMIEMLTVRGVTRYDASTNSFKTPTIKGQNVSVNVDDMFAKLNANAQAQKAKCLEFFGFFDEEIKKNELAVYLVMLAVLFSVRSDPPMNENDVRIVTERHNHFMSLLNRYLESLFGEQARRIFERIPKALGLLNEIARNAGMLFMGTVRSGEAEELPGEFFKIK | not soluble |
| MSTRSARIVVVSSRAAAGVYTDDCGPIIAGWLEQHGFSSVQPQVVADGNPVGEALHDAVNAGVDVIITSGGTGISPTDTTPEHTVAVLDYVIPGLADAIRRSGLPKVPTSVLSRGVCGVAGRTLIINLPGSPGGVRDGLGVLADVLDHALEQIAGGDHPR | soluble |
| MSTRWRYYNSKRGNGFRGRGRGRGRGTSLTAVALPRDDNFHKGAQDGAYFKDMPMDPEQFRDETVLSLSFAQGMLGAAYYEQSSQLLKIMNDISEDLEFRFLKRLIDDVKPTLIIANRSQDLEFIKFLTTRYDPQEKIYEDGTTEEGTSEDTVPTWDSSLAYSTDETTAEKEEKEEDEDDDDEGLPAKLNKLPNNFFRMSRAIERLKAMAGSHDSSMTEEDKYIIIKMRFDIEAVNMIRSFGALLLFLDETRMGVTDDPLSVTSPIKSIKTFTLGNLVEIDFNTIQALDILPKETENKKTFGQGRSLYQLMDKCRSTVGKKCLRKWFRNPTTDRDDLVSRQKCVHYFKQDWNAEVTAKLSSILGRVKALNSVFQKFQSGTAQLIHWECFVSTVNALVEILNIIRQTPISKEFPVESDLLREVSEIAVIAGSIINFAESKIQGRVTVMNGIDEELDEIRDTYENMPMVLTAIAKQEEARLGLPPYSNVACVYIPLVGFVLSVPRDYGVESQPDMTLLYSTHEDLRVRNATTSRLDDEFGDILMRLIDSQTAIILTLKTRVMKKKRSIIKLLSIASRIDVLISFGLIAAQNGWNCPALVDEPVIEAVELYHPISVLVVKKSFVPNQVSSGRDGIKASIITGPNACGKSVYMKSIGIMVFLSHIGSFVPARHAKIGIVDRIVTRMFTVDSVLDGMSTFAKDVEQVALALRKATGNSLVIIDEFGKGTMTEVGLSLLASVMTYWMNRGADRCPHIFLSSHFHALPNYIPLETNIATFLTFTVLREAGGKIKYLFRMTPGLVDCSFALSVAKEEGIPPPVIGRACRIYKALKAGTLLKEIKAEVSNDNEKQLVEDMDVVLADEDGFMAAVESFVKRKKTSFCESSMRNVSEEIEKERSEASTPASKSRSTITARSNSVLSSRSMASVDQLSVLDALLPKKKKKKVTGSSMESSMSPDPFQEEDEGTEGEEDQISAPVSRPTLPSVQKYASEEEKQQSINSRHSFSTRTAIHIPTPIQMGEAGGVKRPRSTSTSSPGPSASKSVRTEVFKKTPNVKESQVLETPKQLSISSFLEPKFPSSEKDVISRVSERYLQSDPFKTPISDRRSQQSSRHSTPKNRSMNQSLIQSARDTPHETIRSSNEVNPEFFNIFNFPDDSILKSQDTYDPNVTPRSSSRRELRPDVSHSQNSQFGEVFSELGTQFSIFNSQQSFPGNSMGTTNPDCSIFDDFFANSQDGEKKIDSTKTSMPIVNSDNFIFKTPEPRSSEKQRSLLKNKGQASNSSISPSSLILGQLAFGDVDQTPRPRGDNPIEFQYDVVDDDDPIFEEKNCSAPVFEFLKSNDDEEDDEFLKSFLETEGSLHIDTSADETIDRSKRS | not soluble |
| MSTSEKRKGMQTDMPELQAMISQRIQEQNYREVLKGVTAFPWCTDDPCVFRTAAGNLWIAVGHVNRKSEVPKFSYKNFLCAYLLGNAEDGVAAYLDLQAAAWKGVELVMFSSHADGLSALYGDGRANDRDLLYRFFGRNYVFAVGFRKKEEKEQASAGDKIFIASVDAVGFGEIDKDGKLAVINKIMSYEQFFDDEDLKPMWGALAVKLFILKCNGYRESAKDRKALDILLHDMMKLCKSMELTAGLDDQKRKHPESAGINPQMALLKNEAMVKVHNGMDEKVKSNLPLLEWAVNHLPAKLLQEFGTFVESVPQIKEPTAYDNLMSLESVLKEMDRLFKKAAEEENLSLTKNSMTDG | not soluble |
| MSTVGLFHFPTPLTRICPAPWGLRLWEKLTLLSPGIAVTPVQMAGKKDYPALLSLDENELEEQFVKGHGPGGQATNKTSNCVVLKHIPSGIVVKCHQTRSVDQNRKLARKILQEKVDVFYNGENSPVHKEKREAAKKKQERKKRAKETLEKKKLLKELWESSKKVH | soluble |
| MSVAGLKKQFHKASQLFSEKISGAEGTKLDEEFLNMEKKIDITSKAVAEILSKATEYLQPNPAYRAKLGMLNTVSKLRGQVKATGYPQTEGLLGDCMLKYGKELGEDSAFGNSLVDVGEALKLMAEVKDSLDINVKQTFIDPLQLLQDKDLKEIGHHLRKLEGRRLDYDYKKRRVGKIPEEEIRQAVEKFEESKELAERSMFNFLENDVEQVSQLAVFVEAALDYHRQSTEILQELQSKLELRISLASKVPKREFMPKPVNMSSTDANGVGPSSSSKTPGTDTPSDQPCCRGLYDFEPENEGELGFKEGDIITLTNQIDENWYEGMLRGESGFFPINYVEVIVPLPP | soluble |
| MSVARHTQILPSVLDRLLDDEPDQSHIESISLFELPQFKRALARDLEALLNTRLMPLDELMESFPQARDSLLTFGIPDLSGISLLNPDDRELLREQLRRSIELHEPRLSRVRVNLDAPREMERHLRFRVDAVLKVHPHRPPVTFDATLQLSSNVYKVQG | not soluble |
| MSVASLFEKFFLSASFIDKAPRTQKDYLGYKKDLLIAFGKMDINKVEPKHVRMFMDKKAVKSGISQANRHKSALQSIFSWAYERGKIKVNPCVGVKKFTEKLEHHHHHH | not soluble |
| MSVCLFLRFCSLRVRCRRLMCRPGEIIHIMWSALAWRWCAVMLTGSQRYAFCNDRFHNRKITRLRNNFMPNILPTDLCANTPTLAIHDNRGFAIRTLAYNRRDHNETIGELISRNRYNASGQLIASRDPRLEVDNFRYQYSLSGVPLRTDSVDSGSTLQLADSAGRTVLTLDAHHTRRWVEYETGEHSLGRPLSYHEQAKGGLKTVTDRFFYATNSEQDKSGNLNGQCVRHYDSAGLQALINQSIIGVPLQQQRRLLTNPKGPVDWFGEKENWGARLSEQPFVSHSTTDALGQLLTQTDAKGHIQRMAYNRAGQLIGSWLTIKNSAEQVILRSLTYSAAGQKLREESGNGVITEYRYEPQTQRLIGIKTTRPAKKDRPTRLQDLRYDYDPVGNILAIHNDAEATRFYRNQKIVPETTYRYDALYQLIEATGREADTNGIQNSQLPALASLNDSNQFVNYTRSYHYDRAGNLLKIQHTGASQYSTHITVSDSSNHGIQQQEGITARDIRSQFDAAGNQQQLQPGQPLRWNSRNQLQQVEPVPRNDGISDSESYLYDGGGSRVVKTSLHKTHNAIQTRSVIYLAGLELRSQYNGNNLTEDFQVITVGAAGRAQVRVLHWERGQPVDIVNDQLRYSFDNHLGSALIELDSDGDIISQEEYYPFGGTAVLASRNTVEAKYKTVRYSGKERDATGLYYYGYRYYQPWLGRWLSADPAGTIDGLNLYRMVRNNPVGLMDGDGLMTDKLLAKHEANFAKKNISSMAELKSEIEKLGLLPADSKQLFLHLNGGESDDEPSGSSGSSGSSEILENTSPHKIKNFHFISEINLATMPRPYYKDFSSTEDMLESAERLKAYGSIDTLLTLDLTSEDIPEFTSILADKGINYIAEKQYEIIDYFSEDELSSENIDRIVNMIKTIQNNNHKVGIHCAAGNGRSGLIATAMIINKKYTQSRINSFEEKNKLKEIIDKNKNEINVDAITYDAMKLVRKTNPFAGERTTDIKAAREYSRYLYSKQNR | not soluble |
| MSVFAFSFCAVVIMPNLLAMSDEETRGRQAMVANFVKDNQKTIRNGKGDKWMSNFLKTQNLTFHRSLSSPSAMSDSSSQNLVVLADVGTAACASGWTRYDLTGMCYQQSKKTMNWYQGEDYCWNLRPGAHSASVHSQEEAKWLNSLYRDKKNGGQMDSWIGLRRDCDNVTYIWTDGSPTDCLWWQPDYPKSEFAEFSCVTIWETDWLYDNPAYIPGQYDDMKECSDDGSNTPTTTTTMQTTTPSTTSTPTTTSTTTTTSASTTTISTTKPPTTQIDIEKCTSNCPVGWIYFGGLCYSKIQGPGRFVDFNSECTRLGGKLGEVSGADGNEALRLALTSNNGNKILDEAWIQHIGSYNNVASGYVGTAGSCYTVLKNSQTN | not soluble |
| MSVFTPLARPELETFLAPYGLGRLLDYQGIAAGSENTNYFISLEQGEFVLTLVERGPVQEMPFFIELLDVLHDANLPVPYALRTTDGQALRELAGKPALLQPRLPGKHISEPNTQHCVQIGELLANLHLATREQVLERKTDRGLDWMLSEGRNFLSHLGETQRALLEKSLQEIEDLKPQIMALPRANLHADLFRDNVLFEGTHLTGLIDFYNACSGPMLYDLAIALNDWCSRENGQLDAVRARALLGAYAGLRPFTAAESKLWATMLRIACVRFWLSRLIAAETFAGQDVLIHDPVEFEQRLAERQTPHIALPFAL | soluble |
| MSVLRSMDKLPDLNRATVLLVSTEDALLQQLAESMLKDDCASELRVHLANSLPLPSNVNRPRIDLIVFVINLHSKYSLQKVEEFLQHVDSSFFLGKVCFLVTGAGQESHCSVHQNTVIKLAHTYRSPLFLCDLQKVESFRAAMARRLVRILQICAGHVPGVSALNLMSLLRSPENPPSKEL | not soluble |
| MSVLSIIACEMLEDELVYVLSKDQNAVRLILVENRQCFRFVRKLKSGNCQARIFPPERISFFIKQMNRPASMKIPNFLLKFPFFGKIHENMKEKNRETITVVVNILKLGLHADCDLLKSEIYRNMKEMVEFSDGILIFYGNCGRPLRGLEAEFKDFNCPLYFLEDEKGNIVDDCISIALGGNDNYAEVMQSGNGTGMIYLTPMWASSWKEMRMEPGDTSDFNVSFLKRHYRKVVKISNEISMGSEFDKNVLNYARTFDMSIIEMKGSMEIAMKSYMNARNGICKKDPIQKSSLEHHHHHH | not soluble |
| MSVNFFSLITSSWERGLFLKSCKNNSGTDSNRFFSFSVPPNLLDNLLPPLLVRKTLSSSSSKSCGIGGIYFKSSAVNVSEDGLTASTFFSILLPKNFLGITKLFCRIFLLSCPHNYKWFIHLINPFEYENFINIE | soluble |
| MSVNGAFSPCVVIPCYNHGAMMASVLVRLAPLALPVFIVDDGSDAATQHVLNLLAAENDGVTLIRLANNSGKGAAVMRGIEAVAQAGFSHALQVDADGQHQIEDAPLLLDEAKTHPDCLISGRPRYDDSVPKSRLYGRYVTHVWVWIETLSLSIKDSMCGFRVYPVAATVSLLSRKSLGRRMDFDTEIMVRLYWAGTPSRFIETAVTYPENGLSHFDALHDNLRISWMHTRLFFGMLPRIPVLLMRQRQQHWAGVSERKGLLGMRFMLAVYQRLGRGVFTLFLWPVIAFYWLTGRTARKASQSWLRQIGEYAHQQDILLPKPLNSYHHFLRFGQAMLDKIASWRGDLHWGRDIDFAPGAQEAIEHGRQKGQLILASHLGDIEVCRALAPQVSGLVINALVFTENSQRFKQVLEEIAPQAGVNLIPVSNIGPDTAIMLQQKLDAGEWVAIVGDRTAVHRQRGGVRRVVWSPFLGKEAPFPQGPFVLAAALRCPVLLMFVIREQKKLRVYCEPFADSITLPRPTRQQALQQVVDRYAERLAHYALKSPLDWFNFFDFWSLPDDDGRTAGKKESLEHHHHHH | not soluble |
| MSVQLKCDAVNCVYNRSHLCSAEEIEVQGGETTGGDATFCGTFSSKSLGNFVSSLGNMNYSGSLKQAVSAEPIMDPKVHCNAVNCTYNDQRYCHADQVEIRNEVSHTAEELEHHHHHH | soluble |
